According to US20200277374A1 (Alector, published 2020):

Assays:
W74A = molecular target: T1, W74A (human, UniProt Q9Y286); experiment: flow cytometry on HEK-293T cells expressing the mutant; mean % of wild-type signal (range of duplicates)
T1 construct: clone of the siglec-7 mutation library; also called Siglec-7 W74A

M30A = molecular target: T2, M30A (human, UniProt Q9Y286); experiment: as above
T2 construct: clone of the siglec-7 mutation library; also called Siglec-7 M30A

N81A = molecular target: T3, N81A (human, UniProt Q9Y286); experiment: as above
T3 construct: clone of the siglec-7 mutation library; also called Siglec-7 N81A
T3 sequence (Q9Y286 19-467 N81A limits assumed): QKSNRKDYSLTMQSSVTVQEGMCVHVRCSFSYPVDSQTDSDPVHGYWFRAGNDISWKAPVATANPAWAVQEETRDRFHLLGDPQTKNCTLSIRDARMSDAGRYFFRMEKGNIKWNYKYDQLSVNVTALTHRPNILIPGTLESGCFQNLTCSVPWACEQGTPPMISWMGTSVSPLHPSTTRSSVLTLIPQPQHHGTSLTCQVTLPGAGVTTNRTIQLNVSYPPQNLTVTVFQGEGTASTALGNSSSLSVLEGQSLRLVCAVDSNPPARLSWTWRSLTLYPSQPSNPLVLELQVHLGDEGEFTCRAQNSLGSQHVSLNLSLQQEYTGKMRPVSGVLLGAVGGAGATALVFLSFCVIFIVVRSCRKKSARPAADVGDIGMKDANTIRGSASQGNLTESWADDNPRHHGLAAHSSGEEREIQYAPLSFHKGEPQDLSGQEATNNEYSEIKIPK

M185A = molecular target: T4, M185A (human, UniProt Q9Y286); experiment: as above
T4 construct: clone of the siglec-7 mutation library; also called Siglec-7 M185A
T4 sequence (Q9Y286 19-467 M185A limits assumed): as the sequence (Q9Y286 19-467 N81A limits assumed) above, with A63N, M167A counted along it

T103A = molecular target: T5, T103A (human, UniProt Q9Y286); experiment: as above
T5 construct: clone of the siglec-7 mutation library; also called Siglec-7 T103A
T5 sequence (Q9Y286 19-467 T103A limits assumed): as the sequence (Q9Y286 19-467 N81A limits assumed) above, with A63N, T85A counted along it

[1] = molecular target: T6, human Siglec-7 expressed on human cells (primary monocytes, dendritic cells, macrophages, NK cells, … (human, UniProt Q9Y286 19-467)); experiment: FACS titration on primary human dendritic cells, donor 358, 4 C
T6 construct: Endogenous receptor on cells; also called Siglec-7 receptor
T6 sequence (Q9Y286 19-467): as the sequence (Q9Y286 19-467 N81A limits assumed) above, with A63N counted along it
Method: (§1) Two Siglec-7 antibodies, 4E3 and 10B5, were titrated 2-fold for a 12-point curve with a concentration range of 6.67-0.00325 nM to assess binding and calculate half-maximal concentration (EC₅₀) for binding to primary human dendritic cells (FIG. 5B). Antibodies were serially diluted and incubated with cells in PBS with 1% BSA, 1 mM EDTA for 1 hour on ice (4° C.). Cells were pelleted and resuspended with goat anti-mouse secondary antibody conjugated with APC (BD Biosciences) at a 1:200 dilution in buffer. Secondary detection antibody was incubated for 30 minutes on ice (4° C.), then cells were washed 3 times in buffer before analyzing on a BD FACS Canto for APC MR. Data were analyzed with FlowJo Software (TreeStar).

[2] = molecular target: T6, human Siglec-7 expressed on human cells …; experiment: FACS titration on primary human dendritic cells, donor 359, 4 C
Method: as §1

[3] = molecular target: T7, Histidine-tagged human Siglec-7 (NovoProtein) (human, UniProt Q9Y286 19-357, limits assumed); experiment: SPR (BiaCore T200, 25 C), antibody captured on anti-mouse IgG, Siglec-7-His 100 nM, single-concentration kinetics
T7 construct: Bought protein; also called purified Siglec-7-his tagged protein; not shown: histidine tag
T7 sequence (Q9Y286 19-357 limits assumed): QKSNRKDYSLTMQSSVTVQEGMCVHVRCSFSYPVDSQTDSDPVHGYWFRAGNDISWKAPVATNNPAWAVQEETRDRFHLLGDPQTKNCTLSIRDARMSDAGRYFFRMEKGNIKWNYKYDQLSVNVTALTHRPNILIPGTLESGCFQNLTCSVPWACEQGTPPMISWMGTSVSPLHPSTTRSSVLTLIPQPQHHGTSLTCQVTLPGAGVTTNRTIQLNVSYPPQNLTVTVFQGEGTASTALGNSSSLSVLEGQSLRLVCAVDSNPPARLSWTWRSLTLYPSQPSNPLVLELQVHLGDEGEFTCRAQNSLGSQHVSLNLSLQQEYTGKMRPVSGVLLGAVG
Method: SPR data was collected at a rate of 10 Hz at 25′ C on a BiaCore T200 instrument. Data analysis was performed using BiaCore T200 Evaluation Software, version 2.0. HBS-EP+ (100 mM HEPES, 1.5 M NaCl, 30 mM EDTA, 0.5% v/v Surfactant P20, pH 7.4) was used as running buffer and for preparing reagents.
Mouse-derived antibodies (25 nM) against Siglec-7 were captured (60 s contact time, 30 μL/min flow rate, 0 s stabilization time) on a CM5 sensor chip (GE Healthcare) immobilized with anti-mouse IgG. Histidine-tagged human Siglec-7 (NovoProtein) was then flowed over the captured anti-Siglec-7 surface (120 s contact time, 30 μL/min flow rate, 300 s dissociation time). Concentration of antigen ranged from 5 nM to 100 nM, depending on information obtained from an initial screen. Duplicate single-concentration trials were performed and bracketed by a blank (0 nM antigen) sample. The chip surface was regenerated in between cycles using 10 mM glycine-HCl, pH1.7 (60 s contact time, 30 μL/min flow rate, 60 s stabilization time). The resulting SPR signal was obtained as the difference in response from measurements performed on a blank flow cell.
Affinity constants (KD) were calculated from the ratio kd/kₐ. For one antibody (clone 1E8), we validated the single-concentration analysis with a multiple-concentration approach (five concentrations of antigen used, plus one blank).

[4] = molecular target: T6, human Siglec-7 expressed on human cells …; experiment: cell-based or functional assay
[5] = molecular target: T6, human Siglec-7 expressed on human cells …; experiment: cell-based or functional assay; remark: listed apart in the source
[6] = molecular target: T6, human Siglec-7 expressed on human cells …; experiment: cell-based or functional assay; remark: listed apart in the source

T2 sequence (Q9Y286 19-467 M30A limits assumed): as the sequence (Q9Y286 19-467 N81A limits assumed) above, with M12A, A63N counted along it
T1 sequence (Q9Y286 19-467 W74A limits assumed): as the sequence (Q9Y286 19-467 N81A limits assumed) above, with W56A, A63N counted along it

B1: anti-Siglec-7 antibody 10B5 (antibody, V domains shown)
VH: QVHLQQSGPELVKPGASVKISCKASGYAFTNCWMNWVRQRPGKGLDWIGRIFPGNGHTNYSGKFKDKATLTEDKSSSTAYMQLSSLTSEDSAVYFCARDYSDYYFDYWGQGTTLTVSS
VL: DVQMTQTTSSLSASLGDRVTISCRASQDINTYLNWYQQKPDGTVKLLIYYTSRLHSGVPSRFSGSGSGTDYSLTISNLEQEDIATYFCQQGNTLPWTFGGGTKLEIK
notes: that light chain holds several Z and differs in its CDRs from S7-10B5.1 / 10B5L1; also called S7-10B5; mAb S7-10B5
Binding Reactivity (% WT) (W74A): 101 % WT | Binding Reactivity (% WT) (M30A): 89.9 % WT | Binding Reactivity (% WT) (N81A): 153 % WT | Binding Reactivity (% WT) (M185A): 29.1 % WT | Binding Reactivity (% WT) (T103A): 96.3 % WT | EC50 [1]: 1.43 nM | EC50 [2]: 1.16 nM | Kd [3]: 3 nM | EC50 of Siglec-7 cell surface downregulation, primary human dendritic cells, donor 362 [4]: 0.144 nM | EC50 of Siglec-7 cell surface downregulation, primary human dendritic cells, donor 363 [4]: 0.35 nM | EC50 of Siglec-7 cell surface downregulation, primary human dendritic cells, donor 364 [4]: 0.103 nM | EC50 of Siglec-7 cell surface downregulation, primary human dendritic cells, donor 365 [4]: 0.0713 nM | Percent Siglec-7 Surface Expression, DCs [5]: 16.8% | Percent Siglec-7 Surface Expression, Monocytes [5]: 6.7% | Percent Siglec-7 Surface Expression, U937 cells [5]: 36.5% | Percent Siglec-7 Surface Expression, Macrophages [6]: 3.2% | Percent Siglec-7 Surface Expression, Microglia [6]: 5.5% | Percent Siglec-7 Surface Expression, NK cells [6]: 25.5%
